Experimental findings from paper PMC5727259, “Voltage-gated sodium channels assemble and gate as dimers” (Nature Communications, 2017) are described below.

The data set concerns the molecule itself. Kind of data set: single-molecule pull-down (SiMPull) with GFP photobleaching step counting; lysate of transfected HEK293 cells (0.4% CHAPS buffer) perfused over anti-GFP antibody on passivated coverslips; low surface density (0.05 molecules/µm^2); TIRF imaging.

B1: transient outward potassium channel Kv4.3 tagged with GFP (natural protein, UniProt Q9UK17 1-655, looked up)
chain: MAAGVAAWLPFARAAAIGWMPVANCPMPLAPADKNKRQDELIVLNVSGRRFQTWRTTLERYPDTLLGSTEKEFFFNEDTKEYFFDRDPEVFRCVLNFYRTGKLHYPRYECISAYDDELAFYGILPEIIGDCCYEEYKDRKRENAERLMDDNDSENNQESMPSLSFRQTMWRAFENPHTSTLALVFYYVTGFFIAVSVITNVVETVPCGTVPGSKELPCGERYSVAFFCLDTACVMIFTVEYLLRLFAAPSRYRFIRSVMSIIDVVAIMPYYIGLVMTNNEDVSGAFVTLRVFRVFRIFKFSRHSQGLRILGYTLKSCASELGFLLFSLTMAIIIFATVMFYAEKGSSASKFTSIPASFWYTIVTMTTLGYGDMVPKTIAGKIFGSICSLSGVLVIALPVPVIVSNFSRIYHQNQRADKRRAQKKARLARIRVAKTGSSNAYLHSKRNGLLNEALELTGTPEEEHMGKTTSLIESQHHHLLHCLEKTTGLSYLVDDPLLSVRTSTIKNHEFIDEQMFEQNCMESSMQNYPSTRSPSLSSHPGLTTTCCSRRSKKTTHLPNSNLPATRLRSMQELSTIHIQGSEQPSLTTSRSSLNLKADDGLRPNCKTSQITTAIISIPTPPALTPEGESRPPPASPGPNTNIPSIASNVVKVSAL
notes: potassium channel Kv4.3 from plasmid pcDNA3.1-Kv4.3-GFP; also called Kv4.3-GFP; pcDNA3.1-Kv4.3-GFP; source: HEK293, transfected, in lysate (CHAPS buffer)
Broadly, the stoichiometry N is the number of molecules, sites or subunits per partner or assembly. With B1, the “stoichiometry N” value was determined as 4.

B2: GFP-tagged chloride channel ClC-3 (natural protein, UniProt P51790 1-818, looked up)
chain: MESEQLFHRGYYRNSYNSITSASSDEELLDGAGVIMDFQTSEDDNLLDGDTAVGTHYTMTNGGSINSSTHLLDLLDEPIPGVGTYDDFHTIDWVREKCKDRERHRRINSKKKESAWEMTKSLYDAWSGWLVVTLTGLASGALAGLIDIAADWMTDLKEGICLSALWYNHEQCCWGSNETTFEERDKCPQWKTWAELIIGQAEGPGSYIMNYIMYIFWALSFAFLAVSLVKVFAPYACGSGIPEIKTILSGFIIRGYLGKWTLMIKTITLVLAVASGLSLGKEGPLVHVACCCGNIFSYLFPKYSTNEAKKREVLSAASAAGVSVAFGAPIGGVLFSLEEVSYYFPLKTLWRSFFAALVAAFVLRSINPFGNSRLVLFYVEYHTPWYLFELFPFILLGVFGGLWGAFFIRANIAWCRRRKSTKFGKYPVLEVIIVAAITAVIAFPNPYTRLNTSELIKELFTDCGPLESSSLCDYRNDMNASKIVDDIPDRPAGIGVYSAIWQLCLALIFKIIMTVFTFGIKVPSGLFIPSMAIGAIAGRIVGIAVEQLAYYHHDWFIFKEWCEVGADCITPGLYAMVGAAACLGGVTRMTVSLVVIVFELTGGLEYIVPLMAAVMTSKWVGDAFGREGIYEAHIRLNGYPFLDAKEEFTHTTLAADVMRPRRNDPPLAVLTQDNMTVDDIENMINETSYNGFPVIMSKESQRLVGFALRRDLTIAIESARKKQEGIVGSSRVCFAQHTPSLPAESPRPLKLRSILDMSPFTVTDHTPMEIVVDIFRKLGLRQCLVTHNGRLLGIITKKDILRHMAQTANQDPASIMFN
notes: chloride channel ClC-3 from plasmid pCLC3sGFP (Addgene); also called ClC-3-GFP; pCLC3sGFP; source: HEK293, transfected, in lysate (CHAPS buffer)
As to B2, the “stoichiometry N” value came out at 2.
